Laboratory results published in article PMC11324105.

Target: Nb9-R59A (alpaca)
Assay: BLI

Sequence of Nb9-R59A (alpaca) (heavy, as listed by the source): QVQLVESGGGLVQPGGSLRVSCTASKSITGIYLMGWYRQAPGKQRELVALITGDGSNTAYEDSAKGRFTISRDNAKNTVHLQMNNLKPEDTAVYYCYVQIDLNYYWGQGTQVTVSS

## MERS-CoV RBD (from UniProt K9N5Q8) (domain or fragment)
  Kd: 4.58 µM
  koff: 0.0624 s⁻¹
  kon: 13600 M⁻¹ s⁻¹
